The source of these data is patent US20260201030A1, “ANTIBODY, ANTIBODY-DRUG CONJUGATE THEREOF AND USE THEREOF” (EVOPOINT BIOSCIENCES CO., LTD., priority 2021, published 2026).

The subject of assay [1] is cynomolgus monkey Claudin18.2. Description: FACS species affinity on HEK293T-Claudin18.2 (cynomolgus monkey) cells. Type of assay: binding. To be noted: cell-based FACS. As to the method: The affinity of the anti-human Claudin18.2 humanized monoclonal antibodies for Claudin18.2 of different species was determined by flow cytometry (FACS). The experimental procedures were as follows: HEK293T-Claudin18.2 (cynomolgus monkey) cells, HEK293T-Claudin18.2 (mouse) cells and HEK293T-Claudin18.2 (rat) cells were digested, collected by centrifugation, washed three times with pre-cooled PBS, resuspended in 1% BSA (in PBS), and added to a 96-well pointed bottom plate at 3×10^5 cells/well. Each antibody subjected to gradient dilution was added, and the mixture was incubated at 4° C. for 1 h. The cells were washed three times with pre-cooled PBS, and then 1 μL of a fluorescent secondary antibody (APC: Biolegend-410712) was added to each well. The mixture was incubated at 4° C. for 0.5 h, and the cells were washed three times with pre-cooled PBS, then resuspended, and assayed on a flow cytometer.

For assay [2], the target named is T1, human Claudin18.2 (Homo sapiens, UniProt P56856).
T1 construct: expressed in transfected cells
Description: Cell-based ELISA affinity of humanized antibodies on HEK293T-Claudin18.2 (human) cells. To be noted: HEK293T-Claudin18.2 cells. Type of assay: binding. The procedure: The affinity of the anti-human Claudin18.2 murine monoclonal antibodies was evaluated by cell-based ELISA. The experimental procedures were as follows: The day before the experiment, HEK293T-Claudin18.2 (human) cells were plated in a 96-well plate at 5×10^4 cells/well. On the day of the experiment, the supernatant was removed, the cells in each well were washed once with 300 μL of PBS, and 100 μL of 4% paraformaldehyde was added to each well for fixation at room temperature for 20 min. Paraformaldehyde was then removed, and the cells in each well were washed twice with 300 μL of PBS. 100 μL of 2% BSA (in PBS) was added to each well, and the mixture was blocked at 37° C. for 2 h. After removing the blocking solution, each antibody subjected to gradient dilution (diluted with 2% BSA (in PBS), starting at […], in a 3-fold gradient, for a total of 11 concentration points) was added to the plate at 100 μL/well, and the mixture was incubated at 37° C. for 2 h. The supernatant was removed, and the cells in each well were washed three times with 300 μL of PBST. 100 μL of an anti-mouse IgG HRP secondary antibody (Jackson, cat #115-035-003) in 2% BSA was added to each well, and the mixture was incubated at 37° C. for 1 h. The secondary antibody was then removed, and the cells in each well were washed five times with 300 μL of PBST, followed by the addition of 100 μL of a TMB substrate (Huzhou InnoReagents Co., Ltd.) per well for color development for 5-20 min. The reaction was stopped by adding 50 μL of 2 N HCl to each well, and OD450 nm values were read on a microplate reader (manufacturer: MD, model: SpectraMax). The values obtained were plotted by GraphPad Prism to calculate the EC50 value.
The affinity of the anti-human Claudin18.2 humanized monoclonal antibodies was determined by cell-based ELISA. The cell-based ELISA was conducted as described in Example I-3.

Assay [3] deals with T1, human Claudin18.2. Description: Cell-based FACS affinity on HEK293T-Claudin18.2 (human) cells. Type of assay: binding. As to the method: The affinity of the anti-human Claudin18.2 humanized antibodies was detected by flow cytometry. The experimental procedures were as follows: The adherent cultured HEK293T-Claudin18.2 (human), NUGC4-Claudin18.2 (human) and NUGC4 cells were digested, collected by centrifugation, and washed three times with pre-cooled PBS. The cells were resuspended in 1% BSA (in PBS) and added to a 96-well pointed bottom plate at 3×10^5 cells/well, with a volume of 50 μL per well. Each test antibody was diluted with 1% BSA (in PBS) (starting at 100 μg/mL, diluted in a 3-fold gradient, for 10 concentration points). The test antibody subjected to gradient dilution was added to the cells at 50 μL/well, and the mixture was well mixed and incubated at 4° C. for 1 h. The cells were collected by centrifugation, washed three times with pre-cooled PBS, and resuspended in 50 μL of 1% BSA (in PBS). 1 μL of a fluorescent secondary antibody (Biolegend-410712) was added to each well, and the mixture was well mixed and incubated at 4° C. for 0.5 h. The cells were collected by centrifugation, washed three times with pre-cooled PBS, resuspended in 200 μL of PBS, and assayed on a machine.

The target of a further assay is T2, human Claudin18.1 (Homo sapiens, UniProt P56856).
T2 construct: expressed in transfected cells
Description: FACS specificity of humanized antibodies on HEK293T-Claudin18.1 (human) cells. Type of assay: binding. Particulars: antibody 50 μg/mL, APC secondary antibody. The procedure:
The specificity of the anti-human Claudin18.2 humanized monoclonal antibodies was determined by flow cytometry (FACS). The experimental procedures were as follows: HEK293T-Claudin18.1 (human) cells were digested, collected by centrifugation, washed three times with pre-cooled PBS, resuspended in 1% BSA (in PBS), and added to a 96-well pointed bottom plate at 3×10^5 cells/well. Each test antibody with a final concentration of 50 μg/mL was added, and the mixture was incubated at 4° C. for 1 h. The cells were washed three times with pre-cooled PBS, and then 1 μL of a fluorescent secondary antibody (APC: Biolegend-410712 or PE: BioLegend-410708) was added to each well. The mixture was incubated at 4° C. for 0.5 h, and the cells were washed three times with pre-cooled PBS, then resuspended, and assayed on a flow cytometer. For reference, anti-human Claudin18.1 positive control antibodies (positive control antibody-1 and positive control antibody-2) were included in the experiment.

Assay [4] concerns HEK293T-Claudin18.2 (human) cells. Nature of the assay: ADCC activity, fluorescein reporter system (Jurkat-NFAT-CD16a). The format is cell-based. To be noted: HEK293T-Claudin18.2 (human) target cells, 5 h. As to the method: ADCC activity of the anti-human Claudin18.2 humanized monoclonal antibodies was detected by a fluorescein reporter system. The experiment was carried out using a Rhinogen® Bio-Glory One-Step Firefly Luciferase Assay kit (Suzhou Rhino Bio, RA-GL04), following the manufacturer's instructions. The experimental procedures were as follows: HEK293T-Claudin18.2 (human) cells were digested, collected by centrifugation, resuspended in DMEM+1% FBS, and then plated at 50000 cells/well. Jurkat-NFAT-CD16a cells were collected by centrifugation and resuspended in 1640+1% FBS, and then plated at 100000 cells/well. Each test antibody subjected to gradient dilution was added, and the mixture was incubated at 37° C. for 5 h. 50 μL of a Bio-Glory One-Step luciferase substrate was added to each well, and readings were taken on a microplate reader (MD, SpectraMax i3x).

In assay [5] the target is T1, human Claudin18.2. Nature of the assay: Cell-based ELISA affinity of humanized antibodies on L929-Claudin18.2 (human) cells. Type of assay: binding. To be noted: L929-Claudin18.2 cells.
The subject of assay [6] is HEK293T-Claudin18.2 (human) cells. Nature of the assay: CDC activity, guinea pig serum killing experiment. Type of assay: cell-based. Particulars: 20% guinea pig serum, 5 h. As to the method:
CDC activity of the anti-human Claudin18.2 humanized monoclonal antibodies was detected by a guinea pig serum killing experiment. The experimental procedures were as follows: HEK293T-Claudin18.2 (human) cells were digested, collected by centrifugation, plated at 50000 cells/well, and incubated overnight. The supernatant was discarded, and 100 μL of each test antibody subjected to gradient dilution with DMEM+20% guinea pig serum (Beijing Bersee, BM361Y) was added to each well. The mixture was incubated at 37° C. for 5 h, and 20 μL of a CCK8 reagent (Suzhou Rhino Bio, QDY-003-D) was added to each well. The mixture was allowed to react for 1-4 h, and readings were taken at 450 nm on a microplate reader.

In assay [7] the target is T1, human Claudin18.2. Description: Cell-based ELISA affinity on NUGC4 cells endogenously expressing human Claudin18.2. The format is binding.

B1: 2D3A11-HZ1: humanized anti-Claudin18.2 antibody, VH SEQ ID NO: 38, VL SEQ ID NO: 39 (antibody, V domains shown)
VH: QVQLVQSGAEVKKPGASVKVSCKASGYTFTSYVVHWVRQAPGQGLEWMGYINPYNADSKYSQEFQGRATLTSDKSASTAYMELSSLRSEDMAVYYCSRSYYGNSFDVWGQGTLVTVSS
VL: DIVMTQSPDSLAVSLGERATINCKSSQSLLNSGNQKNYLTWYQQKPGQSPKLLFFWASTRQSGVPDRFSGSGSGTDFTLTISSLQAEDVAVYYCQNDYYFPFTFGQGTKVEIK
In the case of B1, the “HEK293T-Claudin18.2 (cynomolgus monkey) EC50” value in assay [1] is 0.1719 µg/mL. In the assay with human Claudin18.2 [2], the “Affinity detected by cell-based ELISA (EC50, ng/mL) HEK293T-Claudin18.2” value was 12.67 ± 2.1(N = 2) ng/mL. Besides, in the assay with human Claudin18.2 [3], the “HEK293T-Claudin18.2 EC50” value turned out to be 0.3687 µg/mL and the “HEK293T-Claudin18.2 Maximum signal value” was found to be 132603. Further, in the assay with human Claudin18.1, the “Mean APC fluorescence signal value” is listed as 281, the “Median APC fluorescence signal value” is recorded as 233 and the “Positive rate (%)” value was 0.69%. Besides, the “ADCC activity EC50” value in assay [4] amounted to 0.04791 µg/mL. Besides, the “Affinity detected by cell-based ELISA (EC50, ng/mL) L929-Claudin18.2” value in the assay with human Claudin18.2 [5] is reported as 17.12 ± 0.85(N = 2) ng/mL. Moreover, the “CDC activity EC50” value in assay [6] worked out at 1.904 µg/mL. Besides, the “NUCG4 EC50” value with human Claudin18.2 [7] was 0.09518 µg/mL. Besides, the “NUCG4 Maximum signal value” with human Claudin18.2 [7] (OD450) is given as 0.316.
